Test results as given in patent EP4818205A1 (Beijing Wisdomab Biotechnology Co., Ltd, dated 2026).
Like-named read-outs stand apart in the source and are kept apart here.

T1: recombinant protein His-fib-hTL1A (human)
T1 chain: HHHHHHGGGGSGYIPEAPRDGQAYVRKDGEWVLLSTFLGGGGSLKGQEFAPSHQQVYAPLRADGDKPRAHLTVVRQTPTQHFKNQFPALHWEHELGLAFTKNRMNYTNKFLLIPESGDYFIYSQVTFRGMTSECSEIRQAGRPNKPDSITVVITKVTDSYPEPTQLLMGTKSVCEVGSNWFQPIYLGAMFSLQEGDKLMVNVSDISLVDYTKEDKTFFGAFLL

T2: recombinant protein His-fib-mTL1A (mouse)
T2 construct: also called mouse TL1A
T2 chain: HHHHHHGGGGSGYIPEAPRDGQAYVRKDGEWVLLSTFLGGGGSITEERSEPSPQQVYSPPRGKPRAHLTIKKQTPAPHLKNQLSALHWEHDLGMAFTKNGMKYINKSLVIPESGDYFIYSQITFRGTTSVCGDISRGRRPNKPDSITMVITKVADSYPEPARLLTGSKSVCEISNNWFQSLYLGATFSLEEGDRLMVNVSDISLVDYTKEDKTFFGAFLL

T3: recombinant protein His-fib-mfTL1A (Macaca fascicularis)
T3 construct: also called monkey TL1A; Macaca fascicularis TL1A
T3 chain: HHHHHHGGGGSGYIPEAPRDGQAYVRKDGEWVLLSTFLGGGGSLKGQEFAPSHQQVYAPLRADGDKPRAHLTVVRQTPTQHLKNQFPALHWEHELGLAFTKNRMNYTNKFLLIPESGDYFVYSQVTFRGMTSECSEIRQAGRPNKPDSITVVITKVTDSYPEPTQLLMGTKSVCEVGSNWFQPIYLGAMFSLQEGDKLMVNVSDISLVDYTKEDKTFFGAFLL

T4: recombinant protein His-fib-rTL1A (rat)
T4 construct: also called rat TL1A
T4 chain: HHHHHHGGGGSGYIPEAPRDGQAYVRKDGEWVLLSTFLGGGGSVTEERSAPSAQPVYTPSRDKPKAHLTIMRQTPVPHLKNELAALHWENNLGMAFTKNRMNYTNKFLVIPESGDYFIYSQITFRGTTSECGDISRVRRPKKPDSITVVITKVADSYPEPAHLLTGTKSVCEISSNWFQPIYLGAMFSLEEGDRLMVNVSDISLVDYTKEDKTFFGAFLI


Legend:
[1] = target: T1, recombinant protein His-fib-hTL1A; assay: cell-based or functional assay
[2] = target: T1, recombinant protein His-fib-hTL1A; assay: cell-based or functional assay
[3] = target: T1, recombinant protein His-fib-hTL1A; assay: SPR, Biacore T200; antibody captured by anti-human IgG (Fc), TL1A as analyte; 1:1 model
[4] = target: T2, recombinant protein His-fib-mTL1A; assay: as above
[5] = target: T3, recombinant protein His-fib-mfTL1A; assay: as above
[6] = target: T2, recombinant protein His-fib-mTL1A; assay: SPR, Biacore T200; antibody captured by anti-human IgG (Fc), TL1A as analyte
[7] = target: T1, recombinant protein His-fib-hTL1A; assay: cell-based or functional assay
[8] = target: T1, recombinant protein His-fib-hTL1A; assay: cell-based or functional assay
[9] = target: T1, recombinant protein His-fib-hTL1A; assay: cell-based or functional assay
[10] = target: T1, recombinant protein His-fib-hTL1A; assay: SPR, Biacore T200; antibody captured by anti-human IgG (Fc), TL1A as analyte; 1:1 model
[11] = target: T2, recombinant protein His-fib-mTL1A; assay: as above
[12] = target: T4, recombinant protein His-fib-rTL1A; assay: as above
[13] = target: T3, recombinant protein His-fib-mfTL1A; assay: as above
[14] = target: T4, recombinant protein His-fib-rTL1A; assay: SPR, Biacore T200; antibody captured by anti-human IgG (Fc), TL1A as analyte

Row | Binder | IC50 of inhibition of caspase-3/7 activation in TL1A-stimulated TF-1 cells [1] | IC50 of inhibition of NF-kB activation in TL1A-stimulated 293T-hDR3-NF-kB-RE-luci cells [2] | Kd [3] | koff [3] | kon [3] | Kd [4] | koff [4] | kon [4] | Kd [5] | koff [5] | kon [5] | binding result [6] | IC50 of inhibition of caspase activation in TL1A-stimulated TF-1 cells [7] | IC50 of inhibition of NF-kB activation in TL1A-stimulated 293T-hDR3-NF-kB-RE-luci cells [8] | IC50 of inhibition of interferon-gamma secretion by TL1A-stimulated PBMCs [9] | Kd [10] | koff [10] | kon [10] | Kd [13] | koff [13] | also measured
1 | mouse anti-TL1A monoclonal antibody S9H9 (antibody, V domains shown) VH: QVQLKQSGAELVRPGTSVKISCKASGYAFTNYWLGWIKQRPGHGLEWIGDIHPGRGNIFYNEKFKGKATLTADKSSSTAYMQLSSLTSEDSAVYFCAEGYDTFDYWGQGTTLTVSA VL: DIVMTQSHKFMSTSVGDRVSITCKASQDVSTAVAWYQQKPGQSPKLLIYSASYRYTGVPDRFTGSGSGTDFTFTISSVQAEDLAVYYCQQHYSTPWTFGGGTKLEMKR | 2690 pM | 1280 pM | 37.4 pM | 0.000501 s⁻¹ | 1.34e+07 M⁻¹ s⁻¹ | 37200 pM | 0.00255 s⁻¹ | 68600 M⁻¹ s⁻¹ | 60.3 pM | 0.000175 s⁻¹ | 2.9e+06 M⁻¹ s⁻¹ | – | – | – | – | – | – | – | – | – | –
2 | mouse anti-TL1A monoclonal antibody S7B11 (antibody, V domains shown) VH: QVKLQQSGGELVRPGTSVKISCKASGYAFTNYWLGWIKQRPGHGLEWIGDIHPGRGNIYYNEKFKGKATLTADKSSSTAYMQLSSLTSEDSAVYFCAEGYDTFDYWGQGTTLTVSS VL: DIVMTQSPSYLAASPGETITINCRASKSISKYLAWYQEKPGKTNKLLIYSGSTLQSGIPSRFSGSGSGTDFTLTISSLEPEDFAMYYCQQHNEYPYTFGGGTKLEIKR | 2690 pM | 1350 pM | 234 pM | 0.00011 s⁻¹ | 470000 M⁻¹ s⁻¹ | 53500 pM | 0.00366 s⁻¹ | 68300 M⁻¹ s⁻¹ | 52 pM | 6.93e-05 s⁻¹ | 1.32e+06 M⁻¹ s⁻¹ | – | – | – | – | – | – | – | – | – | –
3 | mouse anti-TL1A monoclonal antibody S4D3 (antibody, V domains shown) VH: QVQLKESGSDLATPGASVKLSCKVSGYTFTKYDINWVRQRPEQGLEWIGWIFPGDGRTDYNEKFKGKATLTIDTSSSTAYMQLSRLTSEDSAVYFCARYGYALDYWGQGTSVTVSS VL: DVVMTQTPLSLPVSLGDQASISCRSSQNIVHSNGDTYLEWFLQKPGQSPKLLIYKVSNRFSGVPDRFSGSGSGTDFTLKISRVEAEDLGVYYCFQGSHFPYTFGGGTKLEMKR | 3050 pM | 1130 pM | 247 pM | 0.000131 s⁻¹ | 532000 M⁻¹ s⁻¹ | – | – | – | 48.9 pM | 6.31e-05 s⁻¹ | 1.29e+06 M⁻¹ s⁻¹ | no binding | – | – | – | – | – | – | – | – | –
4 | anti-TL1A monoclonal antibody RVT-3101 (antibody, V domains shown) VH: QVQLVQSGAEVKKPGASVKVSCKASGYDFTYYGISWVRQAPGQGLEWMGWISTYNGNTHYARMLQGRVTMTTDTSTRTAYMELRSLRSDDTAVYYCARENYYGSGAYRGGMDVWGQGTTVTVSS VL: EIVLTQSPATLSLSPGERATLSCRASQSVSSYLAWYQQKPGQAPRLLIYDASNRATGIPARFSGSGSGTDFTLTISSLEPEDFAVYYCQQRSNWPWTFGQGTKVEIK | 3130 pM | 1280 pM | 154 pM | 0.0001 s⁻¹ | 652000 M⁻¹ s⁻¹ | 48.2 pM | 4.36e-05 s⁻¹ | 904000 M⁻¹ s⁻¹ | 27.5 pM | 4.51e-05 s⁻¹ | 1.64e+06 M⁻¹ s⁻¹ | – | 3460 pM | 1080 pM | 13600 pM | 144 pM | 0.000102 s⁻¹ | 706000 M⁻¹ s⁻¹ | 50 pM | 6.7e-05 s⁻¹ | Kd [11]: 77.5 pM; koff [11]: 5.92e-05 s⁻¹; kon [11]: 764000 M⁻¹ s⁻¹; Kd [12]: 434 pM; koff [12]: 0.000424 s⁻¹; kon [12]: 978000 M⁻¹ s⁻¹; kon [13]: 1.34e+06 M⁻¹ s⁻¹
5 | anti-TL1A monoclonal antibody PRA023 (antibody, V domains shown) VH: QVQLVQSGAEVKKPGASVKVSCKASGFDIQDTYMHWVKQRPGQGLEWMGRIDPASGHTKYDPKFQVRVTITRDTSTSTVYLELSSLRSEDTAVYYCARSGGLPDVWGQGTTVTVSS VL: EIVLTQSPGTLSLSPGERATLSCRASSSVSYMYWYQQKPGQAPRPLIYATSNLASGIPDRFSGSGSGTDFTLTISRLEPEDFAVYYCQQWEGNPRTFGGGTKLEIK | – | – | 355 pM | 0.000169 s⁻¹ | 476000 M⁻¹ s⁻¹ | – | – | – | 80.2 pM | 9.01e-05 s⁻¹ | 1.12e+06 M⁻¹ s⁻¹ | no binding | 6520 pM | 2810 pM | 6540 pM | 355 pM | 0.000169 s⁻¹ | 476000 M⁻¹ s⁻¹ | 80.2 pM | 9.01e-05 s⁻¹ | binding result [14]: no binding; kon [13]: 1.12e+06 M⁻¹ s⁻¹
